The sequences below were run on Escherichia coli TOP10 (assay: shrunken log2 fold change of peptide-encoding DNA abundance (4.5 h post-induction vs induction); higher = less antimicrobial activity (less host growth inhibition)). Details: time post-induction: 4.5 h; library: site-saturation at positions 5, 18, 19, 20.
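Further: peptides expressed intracellularly from a pBAD plasmid library in pooled LB shake-flask culture, induced with 0.3% L-arabinose, DNA abundance read by NGS, three biological replicates, DESeq2 with apeglm shrinkage.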

| Sequence | shrunken log2 fold change |
| --- | --- |
| RRIRIRPPRLPRPRPRPERDPRP | -0.175 |
| RRIRIRPPRLPRPRPRPETAPRP | 0.0478 |
| RRIRIRPPRLPRPRPRPETEPRP | 0.0848 |
| RRIRIRPPRLPRPRPRPETSPRP | -0.239 |
| RRIRIRPPRLPRPRPRPETWPRP | 0.142 |
| RRIRIRPPRLPRPRPRPEVAPRP | 0.218 |
| RRIRIRPPRLPRPRPRPEVKPRP | 0.135 |
| RRIRIRPPRLPRPRPRPEVTPRP | -0.0113 |
| RRIRIRPPRLPRPRPRPEWFPRP | 0.00757 |
| RRIRIRPPRLPRPRPRPEWHPRP | -0.514 |
| RRIRIRPPRLPRPRPRPEWKPRP | 0.0442 |
| RRIRIRPPRLPRPRPRPEWMPRP | -0.0985 |
| RRIRIRPPRLPRPRPRPEWWPRP | -0.0654 |
| RRIRIRPPRLPRPRPRPEYAPRP | -0.0426 |
| RRIRIRPPRLPRPRPRPFDAPRP | -0.0176 |
| RRIRIRPPRLPRPRPRPFDVPRP | -0.296 |
| RRIRIRPPRLPRPRPRPFEAPRP | -0.151 |
| RRIRIRPPRLPRPRPRPFGCPRP | -0.742 |
| RRIRIRPPRLPRPRPRPFGMPRP | -0.498 |
| RRIRIRPPRLPRPRPRPFGTPRP | -0.109 |
| RRIRIRPPRLPRPRPRPFIKPRP | -0.913 |
| RRIRIRPPRLPRPRPRPFLIPRP | -0.606 |
| RRIRIRPPRLPRPRPRPFMGPRP | -0.438 |
| RRIRIRPPRLPRPRPRPFMWPRP | -0.792 |
| RRIRIRPPRLPRPRPRPFNSPRP | -0.384 |

| Sequence | shrunken log2 fold change |
| --- | --- |
| RRIRIRPPRLPRPRPRPFREPRP | -0.0279 |
| RRIRIRPPRLPRPRPRPFRNPRP | -0.902 |
| RRIRIRPPRLPRPRPRPFSPPRP | -0.267 |
| RRIRIRPPRLPRPRPRPFSSPRP | -0.181 |
| RRIRIRPPRLPRPRPRPFSVPRP | -0.248 |
| RRIRIRPPRLPRPRPRPFTAPRP | -0.138 |
| RRIRIRPPRLPRPRPRPFVFPRP | -0.356 |
| RRIRIRPPRLPRPRPRPFVIPRP | 0.0556 |
| RRIRIRPPRLPRPRPRPGALPRP | -0.111 |
| RRIRIRPPRLPRPRPRPGARPRP | 0.251 |
| RRIRIRPPRLPRPRPRPGCHPRP | -0.602 |
| RRIRIRPPRLPRPRPRPGEAPRP | -0.0281 |
| RRIRIRPPRLPRPRPRPGEMPRP | -0.00568 |
| RRIRIRPPRLPRPRPRPGFSPRP | -0.0749 |
| RRIRIRPPRLPRPRPRPGGDPRP | 0.0406 |
| RRIRIRPPRLPRPRPRPGGMPRP | -0.0648 |
| RRIRIRPPRLPRPRPRPGGWPRP | 0.56 |
| RRIRIRPPRLPRPRPRPGHQPRP | -0.00431 |
| RRIRIRPPRLPRPRPRPGHRPRP | 0.0543 |
| RRIRIRPPRLPRPRPRPGKLPRP | -0.0215 |
| RRIRIRPPRLPRPRPRPGKMPRP | -0.329 |
| RRIRIRPPRLPRPRPRPGMFPRP | -0.284 |
| RRIRIRPPRLPRPRPRPGMPPRP | -0.0857 |
| RRIRIRPPRLPRPRPRPGMRPRP | 0.43 |
| RRIRIRPPRLPRPRPRPGMTPRP | -0.164 |

| Sequence | shrunken log2 fold change |
| --- | --- |
| RRIRIRPPRLPRPRPRPGMVPRP | 0.0533 |
| RRIRIRPPRLPRPRPRPGNNPRP | -0.00577 |
| RRIRIRPPRLPRPRPRPGQVPRP | -0.0393 |
| RRIRIRPPRLPRPRPRPGRHPRP | 0.0231 |
| RRIRIRPPRLPRPRPRPGRTPRP | 0.0928 |
| RRIRIRPPRLPRPRPRPGTCPRP | -0.188 |
| RRIRIRPPRLPRPRPRPGTRPRP | 0.0641 |
| RRIRIRPPRLPRPRPRPGYTPRP | -0.206 |
| RRIRIRPPRLPRPRPRPGYYPRP | -0.708 |
| RRIRIRPPRLPRPRPRPHCDPRP | -0.0356 |
| RRIRIRPPRLPRPRPRPHCGPRP | -0.0759 |
| RRIRIRPPRLPRPRPRPHCKPRP | -0.147 |
| RRIRIRPPRLPRPRPRPHCMPRP | -0.697 |
| RRIRIRPPRLPRPRPRPHDHPRP | -0.174 |
| RRIRIRPPRLPRPRPRPHDMPRP | -0.226 |
| RRIRIRPPRLPRPRPRPHESPRP | 0.0539 |
| RRIRIRPPRLPRPRPRPHGDPRP | -0.125 |
| RRIRIRPPRLPRPRPRPHGWPRP | 0.0102 |
| RRIRIRPPRLPRPRPRPHHAPRP | 0.0597 |
| RRIRIRPPRLPRPRPRPHHVPRP | -0.091 |
| RRIRIRPPRLPRPRPRPHIFPRP | -0.311 |
| RRIRIRPPRLPRPRPRPHKAPRP | -0.0133 |
| RRIRIRPPRLPRPRPRPHLLPRP | 0.0103 |
| RRIRIRPPRLPRPRPRPHLYPRP | -0.241 |
| RRIRIRPPRLPRPRPRPHMFPRP | -1 |

| Sequence | shrunken log2 fold change |
| --- | --- |
| RRIRIRPPRLPRPRPRPHQLPRP | -0.52 |
| RRIRIRPPRLPRPRPRPHRLPRP | -0.122 |
| RRIRIRPPRLPRPRPRPHRQPRP | -0.152 |
| RRIRIRPPRLPRPRPRPHSGPRP | -0.00591 |
| RRIRIRPPRLPRPRPRPHWDPRP | -0.248 |
| RRIRIRPPRLPRPRPRPHWIPRP | -0.157 |
| RRIRIRPPRLPRPRPRPHWKPRP | -0.0691 |
| RRIRIRPPRLPRPRPRPHYGPRP | -0.223 |
| RRIRIRPPRLPRPRPRPHYHPRP | -1.47 |
| RRIRIRPPRLPRPRPRPIALPRP | -0.149 |
| RRIRIRPPRLPRPRPRPICIPRP | -0.127 |
| RRIRIRPPRLPRPRPRPICWPRP | 0.307 |
| RRIRIRPPRLPRPRPRPIDHPRP | -0.0137 |
| RRIRIRPPRLPRPRPRPIEPPRP | 0.0377 |
| RRIRIRPPRLPRPRPRPIFTPRP | 0.0285 |
| RRIRIRPPRLPRPRPRPIFVPRP | -0.28 |
| RRIRIRPPRLPRPRPRPIHFPRP | -0.0704 |
| RRIRIRPPRLPRPRPRPIHSPRP | -0.302 |
| RRIRIRPPRLPRPRPRPIKNPRP | -0.546 |
| RRIRIRPPRLPRPRPRPILEPRP | 0.0083 |
| RRIRIRPPRLPRPRPRPILKPRP | 0.134 |
| RRIRIRPPRLPRPRPRPILLPRP | -0.266 |
| RRIRIRPPRLPRPRPRPINAPRP | -0.431 |
| RRIRIRPPRLPRPRPRPINCPRP | -0.0883 |
| RRIRIRPPRLPRPRPRPINWPRP | -0.402 |

| Sequence | shrunken log2 fold change |
| --- | --- |
| RRIRIRPPRLPRPRPRPIPFPRP | -1.35 |
| RRIRIRPPRLPRPRPRPIQNPRP | -0.225 |
| RRIRIRPPRLPRPRPRPISHPRP | -0.0541 |
| RRIRIRPPRLPRPRPRPISNPRP | -0.000216 |
| RRIRIRPPRLPRPRPRPITQPRP | -0.186 |
| RRIRIRPPRLPRPRPRPIVHPRP | -0.642 |
| RRIRIRPPRLPRPRPRPIWPPRP | 0.155 |
| RRIRIRPPRLPRPRPRPIYKPRP | -0.517 |
| RRIRIRPPRLPRPRPRPIYRPRP | -0.191 |
| RRIRIRPPRLPRPRPRPKADPRP | 0.204 |
| RRIRIRPPRLPRPRPRPKARPRP | -0.0685 |
| RRIRIRPPRLPRPRPRPKAYPRP | -0.124 |
| RRIRIRPPRLPRPRPRPKCRPRP | -0.452 |
| RRIRIRPPRLPRPRPRPKCWPRP | 0.139 |
| RRIRIRPPRLPRPRPRPKGIPRP | -0.13 |
| RRIRIRPPRLPRPRPRPKIVPRP | -0.716 |
| RRIRIRPPRLPRPRPRPKIYPRP | -0.581 |
| RRIRIRPPRLPRPRPRPKKKPRP | -0.442 |
| RRIRIRPPRLPRPRPRPKLYPRP | -0.33 |
| RRIRIRPPRLPRPRPRPKMSPRP | -0.327 |
| RRIRIRPPRLPRPRPRPKPHPRP | -0.0472 |
| RRIRIRPPRLPRPRPRPKRCPRP | -0.00138 |
| RRIRIRPPRLPRPRPRPKRQPRP | 0.174 |
| RRIRIRPPRLPRPRPRPKRRPRP | 0.123 |
| RRIRIRPPRLPRPRPRPKSCPRP | -0.0687 |

| Sequence | shrunken log2 fold change |
| --- | --- |
| RRIRIRPPRLPRPRPRPKSEPRP | -0.329 |
| RRIRIRPPRLPRPRPRPKSMPRP | -0.208 |
| RRIRIRPPRLPRPRPRPKSNPRP | -0.673 |
| RRIRIRPPRLPRPRPRPKTKPRP | -0.0929 |
| RRIRIRPPRLPRPRPRPKTSPRP | -0.465 |
| RRIRIRPPRLPRPRPRPKVEPRP | 0.195 |
| RRIRIRPPRLPRPRPRPKVKPRP | -0.127 |
| RRIRIRPPRLPRPRPRPKVMPRP | -0.206 |
| RRIRIRPPRLPRPRPRPKVQPRP | -0.491 |
| RRIRIRPPRLPRPRPRPKWAPRP | -0.105 |
| RRIRIRPPRLPRPRPRPLAHPRP | -0.379 |
| RRIRIRPPRLPRPRPRPLCQPRP | 0.127 |
| RRIRIRPPRLPRPRPRPLEKPRP | -0.0295 |
| RRIRIRPPRLPRPRPRPLEWPRP | -0.0139 |
| RRIRIRPPRLPRPRPRPLFMPRP | -0.756 |
| RRIRIRPPRLPRPRPRPLGIPRP | 0.132 |
| RRIRIRPPRLPRPRPRPLGMPRP | -0.268 |
| RRIRIRPPRLPRPRPRPLGSPRP | -0.41 |
| RRIRIRPPRLPRPRPRPLHGPRP | -0.308 |
| RRIRIRPPRLPRPRPRPLILPRP | -0.895 |
| RRIRIRPPRLPRPRPRPLIQPRP | -1.02 |
| RRIRIRPPRLPRPRPRPLIRPRP | -0.508 |
| RRIRIRPPRLPRPRPRPLKIPRP | 1.44 |
| RRIRIRPPRLPRPRPRPLKNPRP | -0.202 |
| RRIRIRPPRLPRPRPRPLLWPRP | 0.0456 |

— the supplement of paper PMC9112550, “Optimization of the antimicrobial peptide Bac7 by deep mutational scanning” (BMC Biology, 2022)
